Residue numbers refer to the chain shown, from its start. In names and notes the source's numbering stands.
T1: β-casein, P02666
T1 chain: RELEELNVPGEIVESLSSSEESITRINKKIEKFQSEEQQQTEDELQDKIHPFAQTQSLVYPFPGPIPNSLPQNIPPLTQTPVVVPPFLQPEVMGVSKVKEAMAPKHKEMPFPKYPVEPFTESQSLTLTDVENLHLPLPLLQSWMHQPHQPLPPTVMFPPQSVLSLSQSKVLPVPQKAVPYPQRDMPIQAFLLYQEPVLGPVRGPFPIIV

B1: camel chymosin variant 293 (Y190A+N100Q+N291Q) (protein)
chain: GKVAREPLTSYLDSQYFGKIYIGTPPQEFTVVFDTGSSDLWVPSIYCKSNVCKNHHRFDPRKSSTFRNLGKPLSIHYGTGSMEGFLGYDTVTVSNIVDPQQTVGLSTEQPGEVFTYSEFDGILGLAYPSLASEYSVPVFDNMMDRHLVARDLFSVYMDRNGQGSMLTLGAIDPSYYTGSLHWVPVTLQQAWQFTVDSVTINGVAVACVGGCQAILDTGTSVLFGPSSDILKIQMAIGATENRYGEFDVNCGNLRSMPTVVFEINGRDYPLSPSAYTSKDQGFCTSGFQGDQNSELWILGDVFIREYYSVFDRANNRVGLAKAI
B2: camel chymosin variant 296 (S273Y+N100Q+N291Q) (protein)
chain: B1 chain with A190Y, S273Y
B3: camel chymosin variant 270 (V32L+N100Q+N291Q) (protein)
chain: B1 chain with V32L, A190Y
B4: camel chymosin variant 304 (S132A+N100Q+N291Q) (protein)
chain: B1 chain with S132A, A190Y
B5: camel chymosin variant 307 (Y243E+N100Q+N291Q) (protein)
chain: B1 chain with A190Y, Y243E
B6: camel chymosin variant 285 (R254S+N100Q+N291Q) (protein)
chain: B1 chain with A190Y, R254S
B7: camel chymosin variant 286 (R242E+N100Q+N291Q) (protein)
chain: B1 chain with A190Y, R242E
B8: camel chymosin variant 306 (G251D+N100Q+N291Q) (protein)
chain: B1 chain with A190Y, G251D
B9: camel chymosin variant 305 (S226T+N100Q+N291Q) (protein)
chain: B1 chain with A190Y, S226T
B10: camel chymosin variant 308 (S273D+N100Q+N291Q) (protein)
chain: B1 chain with A190Y, S273D
B11: camel chymosin variant 276 (G289S+N100Q+N291Q) (protein)
chain: B1 chain with A190Y, G289S
B12: camel chymosin variant 303 (L130I+N100Q+N291Q) (protein)
chain: B1 chain with L130I, A190Y
B13: camel chymosin variant 295 (H76Q+N100Q+N291Q) (protein)
chain: B1 chain with H76Q, A190Y
B14: camel chymosin variant 280 (D290L+N100Q+N291Q) (protein)
chain: B1 chain with A190Y, D290L
B15: camel chymosin variant 275 (R242Q+N100Q+N291Q) (protein)
chain: B1 chain with A190Y, R242Q
B16: camel chymosin variant 283 (F282E+N100Q+N291Q) (protein)
chain: B1 chain with A190Y, F282E
B17: camel chymosin variant 299 (L222I+N100Q+N291Q) (protein)
chain: B1 chain with A190Y, L222I
B18: camel chymosin variant 272 (D290E+N100Q+N291Q) (protein)
chain: B1 chain with A190Y, D290E
B19: camel chymosin variant 282 (Q280E+N100Q+N291Q) (protein)
chain: B1 chain with A190Y, Q280E

Molecular target: T1, β-casein, P02666
Details: scale: % cleavage of non-glycosylated camel chymosin

Protein	β(193-209): cleavage of β-casein at position 192/193
B1	28
B2	58
B3	28
B4	28
B5	62
B6	78
B7	89
B8	88
B9	44
B10	66
B11	51
B12	29
B13	48
B14	58
B15	74
B16	79
B17	54
B18	60
B19	85
